Experimental data reported in patent publication US20210253639A1 (REGENTS OF THE UNIVERSITY OF MICHIGAN, published 2021).
Ends that are not written are not given here. E3 = triethyleneglycol (PEG3) linker; Cy5.5 = cyanine 5.5 fluorophore

Key:
[1] = target: EGFR and ErbB2 together on the surface of cells that express both (OE33, SKBr3) (human) (UniProt P00533); experiment: flow cytometry on OE33 cells, against QRH*-Cy5.5 and KSP*-Cy5.5
[2] = target: EGFR and ErbB2 together on the surface of cells that express both (OE33, SKBr3) (human) (UniProt P00533); experiment: flow cytometry time course on OE33 cells, 1 µM peptide, first-order fit
[3] = target: EGFR and ErbB2 together on the surface of cells that express both (OE33, SKBr3) (human) (UniProt P00533); experiment: confocal microscopy on OE33 cells, against QRH*-Cy5.5 and KSP*-Cy5.5
[4] = target: EGFR and ErbB2 together on the surface of cells that express both (OE33, SKBr3) (human) (UniProt P00533); experiment: flow cytometry on OE33 cells, apparent dissociation constant
[5] = target: T1, epidermal growth factor receptor (EGFR) (human, UniProt P00533 25-1210); experiment: flow cytometry on OE33 cells (carry EGFR and ErbB2), apparent dissociation constant
T1 construct: whole, on cells; Endogenous receptor on human cancer cell lines or xenograft tumour cells; also called ErbB-1; HER1

[6] = target: T2, epidermal receptor growth factor 2 (ErbB2) (human, UniProt P04626 23-1255); experiment: as above
T2 construct: whole, on cells; Receptor on human cancer cell lines or xenograft tumour cells; also called HER2; HER2/neu

[7] = target: T2, epidermal receptor growth factor 2 …; experiment: confocal microscopy of FITC-labeled peptides on Flo1-HER2 cells
Protocol: A FITC label was attached to each peptide, and binding to Flo1-HER2 and QhTERT cells (control) was imaged using confocal microscopy. […] KSPNPRF (SEQ ID NO: 2) was selected based on the highest mean fluorescence intensity with binding to Flo1-HER2. From the model, this peptide was determined to bind to HER2 domain 3. The peptide was then labeled for deep tissue imaging with a Cy5.5 fluorophore via a GGGSK (SEQ ID NO: 3) linker on the C-terminus, hereafter KSP*-Cy5.5. Cy5.5 was chosen for high quantum yield and photostability. The linker prevents steric hindrance by spatially separating the fluorophore from the peptide. A scrambled sequence PPSNFKR (SEQ ID NO: 4) was developed for use as control by altering the conformationally rigid spacer PNP and moving both hydrophobic and hydrophilic amino acids at the C-terminus. This control peptide also was linked to Cy5.5 via GGGSK (SEQ ID NO: 3), hereafter PPS*-Cy5.5. […] The fluorescence emission peak occurs at 708 nm in the NIR spectrum.

B1: QRH*-KSP*-E3-Cy5.5 (peptide)
peptide 1: QRHKPRE-E3
peptide 2: KSPNPRF-E3
modifications: not fully specified (bridges); also: heterodimer: both C-termini joined via E3 to alpha and epsilon amines of a Lys, followed by Lys carrying Cy5.5
How did the fold improved binding affinity compared with either monomer alone [1] turn out when B1 was run?
The fold improved binding affinity compared with either monomer alone was 2 fold.

And the apparent association time constant Ka [2]?
Its apparent association time constant Ka is 0.22 min⁻¹.

And the association time (printed in brackets after Ka) [2]?
Its association time (printed in brackets after Ka) is 4.5 min.

And the fold greater fluorescence intensity compared with either monomer alone [3]?
The fold greater fluorescence intensity compared with either monomer alone was 3 fold.

What about the Kd [4] of the same binder?
Its Kd is 23 nM.

B2: QRH*-Cy5.5 (peptide)
peptide: QRHKPREGGGSK(Cy5.5)-NH2
notes: also called QRH*-GGGSK-Cy5.5; EGFR monomer peptide
B2 was tested. Which Kd [5] did it give?
Its Kd is 98 nM.

B3: KSP*-Cy5.5 (peptide)
peptide: KSPNPRFGGGSK(Cy5.5)-NH2
notes: also called KSP*-GGGSK-Cy5.5; ErbB2 monomer peptide
Which Kd [6] does the source give for B3 here?
Its Kd is 54 nM.

B4: KSPNPRF with a FITC label (peptide)
peptide: KSPNPRF
modifications: also: FITC label, attachment not given here
Does B4 bind [7]?
Result: binds
